For assay [1], the target named is insulin receptor (IR). Description: plate-bound Insulin-R, 20 nM insulin-biotin, 0 nM competitor (IFG-II series), average.
Assay [2] deals with insulin receptor (IR). Briefly: plate-bound Insulin-R, 20 nM insulin-biotin, 0 nM competitor (Insulin series), average.
The target in assay [3] is insulin receptor (IR). Description: plate-bound Insulin-R, 20 nM insulin-biotin, 0 nM competitor (ZC701B20 series), average.
In assay [4] the target is insulin receptor (IR). Description: plate-bound Insulin-R, 20 nM insulin-biotin, 0 nM competitor (ZC1487B26 series), average.
Assay [5] concerns the target insulin receptor (IR). Description: plate-bound Insulin-R, 20 nM insulin-biotin, 0 nM competitor (IFG-II series), replicate 1.
The target of assay [6] is insulin receptor (IR). Description: plate-bound Insulin-R, 20 nM insulin-biotin, 0 nM competitor (IFG-II series), replicate 2.
Assay [7] concerns the target insulin receptor (IR). Description: plate-bound Insulin-R, 20 nM insulin-biotin, 0 nM competitor (Insulin series), replicate 1.
Assay [8] addresses insulin receptor (IR). Description: plate-bound Insulin-R, 20 nM insulin-biotin, 0 nM competitor (Insulin series), replicate 2.
Assay [9] deals with insulin receptor (IR). Briefly: plate-bound Insulin-R, 20 nM insulin-biotin, 0 nM competitor (ZC701B20 series), replicate 1.
The target of assay [10] is insulin receptor (IR). Briefly: plate-bound Insulin-R, 20 nM insulin-biotin, 0 nM competitor (ZC701B20 series), replicate 2.
Assay [11] concerns the target insulin receptor (IR). Description: plate-bound Insulin-R, 20 nM insulin-biotin, 0 nM competitor (ZC1487B26 series), replicate 1.
Assay [12] deals with insulin receptor (IR). Briefly: plate-bound Insulin-R, 20 nM insulin-biotin, 0 nM competitor (ZC1487B26 series), replicate 2.
Assay [13] concerns the target insulin receptor (IR). Description: competition ELISA, plate-bound Insulin-R, 20 nM insulin-biotin, competitor […], average. (In general: ELISA stands for enzyme-linked immunosorbent assay.)
The target of assay [14] is insulin receptor (IR). Description: competition ELISA, plate-bound Insulin-R, 20 nM insulin-biotin, competitor 250 nM, average.
For assay [15], the target named is insulin receptor (IR). Description: competition ELISA, plate-bound Insulin-R, 20 nM insulin-biotin, competitor 500 nM, average.
The target in assay [16] is insulin receptor (IR). Description: competition ELISA, plate-bound Insulin-R, 20 nM insulin-biotin, competitor 1000 nM, average.
Assay [17] deals with insulin receptor (IR). Briefly: competition ELISA, plate-bound Insulin-R, 20 nM insulin-biotin, competitor 2000 nM, average.
The target of assay [18] is insulin receptor (IR). Briefly: competition ELISA, plate-bound Insulin-R, 20 nM insulin-biotin, competitor 62.5 nM, average.
Assay [19] addresses insulin receptor (IR). Briefly: competition ELISA, plate-bound Insulin-R, 20 nM insulin-biotin, competitor […], replicate 1.
In assay [20] the target is insulin receptor (IR). Description: competition ELISA, plate-bound Insulin-R, 20 nM insulin-biotin, competitor […], replicate 2.
The target in assay [21] is insulin receptor (IR). Briefly: competition ELISA, plate-bound Insulin-R, 20 nM insulin-biotin, competitor 31.25 nM, average.
Assay [22] concerns the target insulin receptor (IR). Description: competition ELISA, plate-bound Insulin-R, 20 nM insulin-biotin, competitor 15.625 nM, average.
The target of assay [23] is insulin receptor (IR). Description: competition ELISA, plate-bound Insulin-R, 20 nM insulin-biotin, competitor 7.8125 nM, average.
The target in assay [24] is insulin receptor (IR). Description: competition ELISA, plate-bound Insulin-R, 20 nM insulin-biotin, competitor 1.95313 nM, average.
Assay [25] deals with insulin receptor (IR). Description: competition ELISA, plate-bound Insulin-R, 20 nM insulin-biotin, competitor 250 nM, replicate 1.
The target in assay [26] is insulin receptor (IR). Description: competition ELISA, plate-bound Insulin-R, 20 nM insulin-biotin, competitor 250 nM, replicate 2.
Assay [27] concerns the target insulin receptor (IR). Description: competition ELISA, plate-bound Insulin-R, 20 nM insulin-biotin, competitor 3.90625 nM, average.
Assay [28] concerns the target insulin receptor (IR). Briefly: competition ELISA, plate-bound Insulin-R, 20 nM insulin-biotin, competitor 500 nM, replicate 1.
The target of assay [29] is insulin receptor (IR). Briefly: competition ELISA, plate-bound Insulin-R, 20 nM insulin-biotin, competitor 500 nM, replicate 2.
Assay [30] deals with insulin receptor (IR). Description: competition ELISA, plate-bound Insulin-R, 20 nM insulin-biotin, competitor 1000 nM, replicate 1.
The target in assay [31] is insulin receptor (IR). Briefly: competition ELISA, plate-bound Insulin-R, 20 nM insulin-biotin, competitor 1000 nM, replicate 2.
In assay [32] the target is insulin receptor (IR). Description: competition ELISA, plate-bound Insulin-R, 20 nM insulin-biotin, competitor 2000 nM, replicate 1.
For assay [33], the target named is insulin receptor (IR). Description: competition ELISA, plate-bound Insulin-R, 20 nM insulin-biotin, competitor 2000 nM, replicate 2.
For assay [34], the target named is insulin receptor (IR). Description: competition ELISA, plate-bound Insulin-R, 20 nM insulin-biotin, competitor 62.5 nM, replicate 1.
The target of assay [35] is insulin receptor (IR). Briefly: competition ELISA, plate-bound Insulin-R, 20 nM insulin-biotin, competitor 62.5 nM, replicate 2.
In assay [36] the target is insulin receptor (IR). Description: competition ELISA, plate-bound Insulin-R, 20 nM insulin-biotin, competitor 31.25 nM, replicate 1.
In assay [37] the target is insulin receptor (IR). Description: competition ELISA, plate-bound Insulin-R, 20 nM insulin-biotin, competitor 31.25 nM, replicate 2.
Assay [38] has as its target insulin receptor (IR). Description: competition ELISA, plate-bound Insulin-R, 20 nM insulin-biotin, competitor 15.625 nM, replicate 1.
Assay [39] deals with insulin receptor (IR). Briefly: competition ELISA, plate-bound Insulin-R, 20 nM insulin-biotin, competitor 15.625 nM, replicate 2.
Assay [40] addresses insulin receptor (IR). Description: competition ELISA, plate-bound Insulin-R, 20 nM insulin-biotin, competitor 7.8125 nM, replicate 1.
In assay [41] the target is insulin receptor (IR). Briefly: competition ELISA, plate-bound Insulin-R, 20 nM insulin-biotin, competitor 7.8125 nM, replicate 2.
The target in assay [42] is insulin receptor (IR). Briefly: competition ELISA, plate-bound Insulin-R, 20 nM insulin-biotin, competitor 1.95313 nM, replicate 1.
Assay [43] addresses insulin receptor (IR). Briefly: competition ELISA, plate-bound Insulin-R, 20 nM insulin-biotin, competitor 1.95313 nM, replicate 2.
In assay [44] the target is insulin receptor (IR). Description: competition ELISA, plate-bound Insulin-R, 20 nM insulin-biotin, competitor 3.90625 nM, replicate 1.
The target in assay [45] is insulin receptor (IR). Briefly: competition ELISA, plate-bound Insulin-R, 20 nM insulin-biotin, competitor 3.90625 nM, replicate 2.
The target in assay [46] is ConA (ConA-sepharose beads). Description: pull-down on ConA-sepharose beads, GUS activity in flow through.

Chain of periodate/borohydride modified ß-glucuronidase (enzyme) (P08236 23-651): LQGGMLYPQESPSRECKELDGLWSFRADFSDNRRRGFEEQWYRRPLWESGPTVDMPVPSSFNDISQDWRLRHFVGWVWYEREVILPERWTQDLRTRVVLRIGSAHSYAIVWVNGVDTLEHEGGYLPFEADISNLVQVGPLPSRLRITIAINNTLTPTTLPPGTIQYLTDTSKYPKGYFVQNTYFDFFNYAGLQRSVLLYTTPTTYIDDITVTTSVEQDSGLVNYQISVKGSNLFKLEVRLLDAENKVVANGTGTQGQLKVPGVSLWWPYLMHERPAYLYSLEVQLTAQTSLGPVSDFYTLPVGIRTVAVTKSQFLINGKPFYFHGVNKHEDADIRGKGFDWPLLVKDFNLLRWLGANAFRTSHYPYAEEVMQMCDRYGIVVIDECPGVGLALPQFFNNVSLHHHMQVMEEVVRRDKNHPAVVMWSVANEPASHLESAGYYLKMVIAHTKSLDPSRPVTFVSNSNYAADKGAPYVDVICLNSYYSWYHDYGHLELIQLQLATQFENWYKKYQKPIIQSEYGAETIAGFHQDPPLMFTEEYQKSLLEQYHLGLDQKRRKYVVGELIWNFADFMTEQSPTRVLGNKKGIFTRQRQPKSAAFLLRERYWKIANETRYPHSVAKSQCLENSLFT

For the substance “Insulin-biotin (biotinylated insulin) (from UniProt P01308 25-54; P01308 90-110) (ligand)”, the Chemiluminescence Intensity with insulin receptor (IR) [1] came out at 1920; with insulin receptor (IR) [2] it was 1940; with insulin receptor (IR) [3], 1840; with insulin receptor (IR) [4], 2010; with insulin receptor (IR) [5] it was 1870; in the assay with insulin receptor (IR) [6], 1960. Moreover, the Chemiluminescence Intensity came out at 2180 in the assay with insulin receptor (IR) [7]; 1690 in the assay with insulin receptor (IR) [8]; 1790 with insulin receptor (IR) [9]; 1890 with insulin receptor (IR) [10]; 1950 with insulin receptor (IR) [11]; 2070 with insulin receptor (IR) [12].

Consider “IGF-II (wild-type, non-biotinylated control ligand) (from UniProt P01344 25-91)”, for which the Chemiluminescence Intensity came to 874 in the assay with insulin receptor (IR) [13]; 605 in the assay with insulin receptor (IR) [14]; 368 in the assay with insulin receptor (IR) [15]; 222 with insulin receptor (IR) [16]; 105 in the assay with insulin receptor (IR) [17]; 1110 with insulin receptor (IR) [18]. In addition, the Chemiluminescence Intensity with insulin receptor (IR) [19] came out at 828; with insulin receptor (IR) [20], 919; in the assay with insulin receptor (IR) [21], 1320; with insulin receptor (IR) [22], 1430; with insulin receptor (IR) [23] it was 1480; with insulin receptor (IR) [24], 1330. The Chemiluminescence Intensity with insulin receptor (IR) [25] was found to be 644; with insulin receptor (IR) [26], 566; with insulin receptor (IR) [27], 1420; in the assay with insulin receptor (IR) [28], 356; with insulin receptor (IR) [29], 379; with insulin receptor (IR) [30], 268. Besides, the Chemiluminescence Intensity in the assay with insulin receptor (IR) [31] came to 176; in the assay with insulin receptor (IR) [32], 70; in the assay with insulin receptor (IR) [33], 140; with insulin receptor (IR) [34] it was 991; with insulin receptor (IR) [35] it was 1220; with insulin receptor (IR) [36], 1190. Further, the Chemiluminescence Intensity in the assay with insulin receptor (IR) [37] is 1450; with insulin receptor (IR) [38], 1490; in the assay with insulin receptor (IR) [39], 1380; with insulin receptor (IR) [40], 1480; with insulin receptor (IR) [41], 1480; with insulin receptor (IR) [42] it was 1410. For the same substance, the Chemiluminescence Intensity came to 1250 with insulin receptor (IR) [43], 1480 with insulin receptor (IR) [44] and 1370 with insulin receptor (IR) [45].

Turning to “periodate/borohydride modified ß-glucuronidase (enzyme)”, the ConA binding activity lost in [46] was found to be 60%.

For “Insulin (non-biotinylated control) (from UniProt P01308 25-54; P01308 90-110) (ligand)”, the Chemiluminescence Intensity with insulin receptor (IR) [13] was determined as 236; with insulin receptor (IR) [14] it was 122; in the assay with insulin receptor (IR) [15], 61.5; in the assay with insulin receptor (IR) [16], 34; with insulin receptor (IR) [17] it was 25.5; with insulin receptor (IR) [18], 498. For the same substance, the Chemiluminescence Intensity with insulin receptor (IR) [19] worked out at 243; in the assay with insulin receptor (IR) [20], 229; with insulin receptor (IR) [21], 634; in the assay with insulin receptor (IR) [22] it was 832; in the assay with insulin receptor (IR) [23], 753; in the assay with insulin receptor (IR) [24], 1250. In addition, the Chemiluminescence Intensity came to 102 in the assay with insulin receptor (IR) [25]; 141 with insulin receptor (IR) [26]; 1260 in the assay with insulin receptor (IR) [27]; 66 in the assay with insulin receptor (IR) [28]; 57 with insulin receptor (IR) [29]; 43 with insulin receptor (IR) [30]. Moreover, the Chemiluminescence Intensity is 25 with insulin receptor (IR) [31]; 38 with insulin receptor (IR) [32]; 13 in the assay with insulin receptor (IR) [33]; 479 with insulin receptor (IR) [34]; 517 with insulin receptor (IR) [35]; 750 in the assay with insulin receptor (IR) [36]. For the same substance, the Chemiluminescence Intensity is 517 with insulin receptor (IR) [37]; 780 with insulin receptor (IR) [38]; 885 with insulin receptor (IR) [39]; 503 with insulin receptor (IR) [40]; 1000 with insulin receptor (IR) [41]; 1050 with insulin receptor (IR) [42]. The Chemiluminescence Intensity with insulin receptor (IR) [43] came out at 1460; with insulin receptor (IR) [44], 1180; with insulin receptor (IR) [45] it was 1340.

The values above are taken from US20230241187A1.
